Patent US20100196266A1 (published 2010)

Key:
human CD20 on cells = molecular target: T1, human CD20 on cells (human, UniProt P11836 1-297); test: indirect flow cytometry, Namalwa cells, FITC-GAM; none 2.91
T1 construct: whole, on cells
T1 sequence (looked up): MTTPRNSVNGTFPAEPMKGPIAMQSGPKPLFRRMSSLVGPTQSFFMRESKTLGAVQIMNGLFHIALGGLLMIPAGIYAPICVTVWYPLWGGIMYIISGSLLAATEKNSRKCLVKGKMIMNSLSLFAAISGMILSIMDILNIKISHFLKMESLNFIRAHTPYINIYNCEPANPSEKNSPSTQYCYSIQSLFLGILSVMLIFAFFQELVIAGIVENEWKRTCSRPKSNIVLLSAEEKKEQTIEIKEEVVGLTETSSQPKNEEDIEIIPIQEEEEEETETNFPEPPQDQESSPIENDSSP

human CD22 on cells [1] = molecular target: T2, human CD22 on cells (human, UniProt P20273 20-847); test: flow cytometry, 697 (ALL) cells; no mAb 4.9
T2 construct: whole, on cells

human CD22 on cells [2] = molecular target: T2, human CD22 on cells; test: flow cytometry, REH (ALL) cells; no mAb 3.9
human CD22 on cells [3] = molecular target: T2, human CD22 on cells; test: flow cytometry, K562 (CML) cells; no mAb 3.2
human CD22 on cells [4] = molecular target: T2, human CD22 on cells; test: flow cytometry, MN60 (ALL) cells; no mAb 8.1
human CD22 on cells [5] = molecular target: T2, human CD22 on cells; test: flow cytometry, WAC (CLL) cells; no mAb 15.8
human CD22 on cells [6] = molecular target: T2, human CD22 on cells; test: flow cytometry, MEC-1 (CLL) cells; no mAb 4.7
human CD22 on cells [7] = molecular target: T2, human CD22 on cells; test: flow cytometry, GDM-1 (AML) cells; no mAb 16.8
human CD22 on cells [8] = molecular target: T2, human CD22 on cells; test: flow cytometry, RS4;11 (ALL) cells; no mAb 6.4
human CD22 on cells [9] = molecular target: T2, human CD22 on cells; test: flow cytometry, Jeko-1 (MCL) cells; no mAb 14.3
human CD22 on cells [10] = molecular target: T2, human CD22 on cells; test: flow cytometry, Kasumi-3 (AML) cells; no mAb 9.6
human CD22 on cells [11] = molecular target: T2, human CD22 on cells; test: flow cytometry, Kasumi-1 (AML) cells; no mAb 18.2
human CD22 on cells [12] = molecular target: T2, human CD22 on cells; test: flow cytometry, Granta-519 (MCL) cells; no mAb 15.3
human CD22 on cells [13] = molecular target: T2, human CD22 on cells; test: indirect flow cytometry, Namalwa cells, FITC-GAM; none 2.91
human CD22 on cells [14] = molecular target: T2, human CD22 on cells; test: flow cytometry, HC-1 (hairy cell leukemia) cells; no mAb 4.8
human CD74 on cells [15] = molecular target: T3, human CD74 on cells (human, UniProt P04233 1-296); test: flow cytometry, 697 (ALL) cells; no mAb 4.9
T3 construct: whole, on cells
T3 sequence (looked up): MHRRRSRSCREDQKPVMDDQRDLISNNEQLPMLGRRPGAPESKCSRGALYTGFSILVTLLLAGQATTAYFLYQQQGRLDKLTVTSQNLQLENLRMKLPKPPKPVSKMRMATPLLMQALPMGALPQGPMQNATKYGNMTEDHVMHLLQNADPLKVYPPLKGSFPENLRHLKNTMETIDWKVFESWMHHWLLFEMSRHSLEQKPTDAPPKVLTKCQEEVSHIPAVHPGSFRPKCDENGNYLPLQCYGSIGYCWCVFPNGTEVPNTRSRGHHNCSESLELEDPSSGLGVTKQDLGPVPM

human CD74 on cells [16] = molecular target: T3, human CD74 on cells; test: flow cytometry, REH (ALL) cells; no mAb 3.9
human CD74 on cells [17] = molecular target: T3, human CD74 on cells; test: flow cytometry, K562 (CML) cells; no mAb 3.2
human CD74 on cells [18] = molecular target: T3, human CD74 on cells; test: flow cytometry, MN60 (ALL) cells; no mAb 8.1
human CD74 on cells [19] = molecular target: T3, human CD74 on cells; test: flow cytometry, WAC (CLL) cells; no mAb 15.8
human CD74 on cells [20] = molecular target: T3, human CD74 on cells; test: flow cytometry, MEC-1 (CLL) cells; no mAb 4.7
human CD74 on cells [21] = molecular target: T3, human CD74 on cells; test: flow cytometry, GDM-1 (AML) cells; no mAb 16.8
human CD74 on cells [22] = molecular target: T3, human CD74 on cells; test: flow cytometry, RS4;11 (ALL) cells; no mAb 6.4
human CD74 on cells [23] = molecular target: T3, human CD74 on cells; test: flow cytometry, Jeko-1 (MCL) cells; no mAb 14.3
human CD74 on cells [24] = molecular target: T3, human CD74 on cells; test: flow cytometry, Kasumi-3 (AML) cells; no mAb 9.6
human CD74 on cells [25] = molecular target: T3, human CD74 on cells; test: flow cytometry, Kasumi-1 (AML) cells; no mAb 18.2
human CD74 on cells [26] = molecular target: T3, human CD74 on cells; test: flow cytometry, Granta-519 (MCL) cells; no mAb 15.3
human CD74 on cells [27] = molecular target: T3, human CD74 on cells; test: indirect flow cytometry, Namalwa cells, FITC-GAM; none 2.91
human CD74 on cells [28] = molecular target: T3, human CD74 on cells; test: flow cytometry, HC-1 (hairy cell leukemia) cells; no mAb 4.8
[29] = molecular target: T4, human leukocyte antigen-DR (HLA-DR) on human lymphoma and leukemia cell lines and human lymphocytes (human); test: flow cytometry, 697 (ALL) cells; no mAb 4.9
[30] = molecular target: T4, human leukocyte antigen-DR (HLA-DR) on …; test: flow cytometry, REH (ALL) cells; no mAb 3.9
[31] = molecular target: T4, human leukocyte antigen-DR (HLA-DR) on …; test: flow cytometry, K562 (CML) cells; no mAb 3.2
[32] = molecular target: T4, human leukocyte antigen-DR (HLA-DR) on …; test: flow cytometry, MN60 (ALL) cells; no mAb 8.1
[33] = molecular target: T4, human leukocyte antigen-DR (HLA-DR) on …; test: flow cytometry, WAC (CLL) cells; no mAb 15.8
[34] = molecular target: T4, human leukocyte antigen-DR (HLA-DR) on …; test: flow cytometry, MEC-1 (CLL) cells; no mAb 4.7
[35] = molecular target: T4, human leukocyte antigen-DR (HLA-DR) on …; test: flow cytometry, GDM-1 (AML) cells; no mAb 16.8
[36] = molecular target: T4, human leukocyte antigen-DR (HLA-DR) on …; test: flow cytometry, RS4;11 (ALL) cells; no mAb 6.4
[37] = molecular target: T4, human leukocyte antigen-DR (HLA-DR) on …; test: flow cytometry, Jeko-1 (MCL) cells; no mAb 14.3
[38] = molecular target: T4, human leukocyte antigen-DR (HLA-DR) on …; test: flow cytometry, Kasumi-3 (AML) cells; no mAb 9.6
[39] = molecular target: T4, human leukocyte antigen-DR (HLA-DR) on …; test: flow cytometry, Kasumi-1 (AML) cells; no mAb 18.2
[40] = molecular target: T4, human leukocyte antigen-DR (HLA-DR) on …; test: flow cytometry, Granta-519 (MCL) cells; no mAb 15.3
[41] = molecular target: T4, human leukocyte antigen-DR (HLA-DR) on …; test: indirect flow cytometry, Namalwa cells, FITC-GAM; none 2.91
[42] = molecular target: T4, human leukocyte antigen-DR (HLA-DR) on …; test: flow cytometry, HC-1 (hairy cell leukemia) cells; no mAb 4.8

B1: 1F5 (murine anti-CD20 mAb) (antibody, V domains shown)
VH: QVQLRQPGAELVKPGASVKMSCKASGYTFTSYNMHWVKQTPGQGLEWIGAIYPGNGDTSYNQKFKGKATLTADKSSSTAYMQLSSLTSEDSAVYYCARSHYGSNYVDYFDYWGQGTTLTVSS
VL: DIVLSQSPAILSASPGEKVTMTCRASSSLSFMHWYQQKPGSSPKPWIYATSNLASGVPARFSGSGSGTSYSLTISRVEAEDAATYFCHQWSSNPLTFGAGTKLELK
GEO MEAN Fluorescence (human CD20 on cells): 3.83

B2: murine LL2 (anti-human CD22) (antibody, V domains shown)
VH: QVQLQESGAELSKPGASVKMSCKASGYTFTSYWLHWIKQRPGQGLEWIGYINPRNDYTEYNQNFKDKATLTADKSSSTAYMQLSSLTSEDSAVYYCARRDITTFYWGQGTTLTVSS
VL: DIQLTQSPSSLAVSAGENVTMSCKSSQSVLYSANHKNYLAWYQQKPGQSPKLLIYWASTRESGVPDRFTGSGSGTDFTLTISRVQVEDLAIYYCHQYLSSWTFGGGTKLEIKR
mean FL (human CD22 on cells [1]): 15.9 | mean FL (human CD22 on cells [2]): 16.8 | mean FL (human CD22 on cells [3]): 4.3 | mean FL (human CD22 on cells [4]): 17.1 | mean FL (human CD22 on cells [5]): 20.1 | mean FL (human CD22 on cells [6]): 49 | mean FL (human CD22 on cells [7]): 28.5 | mean FL (human CD22 on cells [8]): 20.9 | mean FL (human CD22 on cells [9]): 25 | mean FL (human CD22 on cells [10]): 13.9 | mean FL (human CD22 on cells [11]): 20.9 | mean FL (human CD22 on cells [12]): 28.6 | GEO MEAN Fluorescence (human CD22 on cells [13]): 10.5 | mean FL (human CD22 on cells [14]): 17.8

B3: murine LL1 (anti-human CD74) (antibody, V domains shown)
VH: QIQLVQSGPELKKPGETVKVTCKTSGYTFTNYGVNWIKQTPGEGLQWMGWINPNTGEPTFDDDFKGRFAFSLESSASTAFLQISNLKNEDMGTYFCSRSRGKNEAWFAYWGQGTLVTVSE
VL: DVVMTQTPLSLPVSLGDQASISCRSSQSLVHRNGNTYLHWYLQKPGQSPKLLIYTVSNRFSGVPDRFSGSGSGTDFTLKISRVEAEDLGLYFCSQSSHVPPTFGAGTKLEI
mean FL (human CD74 on cells [15]): 20.6 | mean FL (human CD74 on cells [16]): 61.1 | mean FL (human CD74 on cells [17]): 7 | mean FL (human CD74 on cells [18]): 25.9 | mean FL (human CD74 on cells [19]): 43.6 | mean FL (human CD74 on cells [20]): 44.7 | mean FL (human CD74 on cells [21]): 69.5 | mean FL (human CD74 on cells [22]): 24.3 | mean FL (human CD74 on cells [23]): 32.7 | mean FL (human CD74 on cells [24]): 18.4 | mean FL (human CD74 on cells [25]): 23.8 | mean FL (human CD74 on cells [26]): 50.8 | GEO MEAN Fluorescence (human CD74 on cells [27]): 17.3 | mean FL (human CD74 on cells [28]): 36.7

B4: murine monoclonal antibody L243 (mL243) (antibody, V domains shown)
VH: QIQLVQSGPELKKPGETVKISCKASGFTFTNYGMNWVKQAPGKGLKWMGWINTYTREPTYADDFKGRFAFSLETSASTAYLQINNLKNEDTAKYFCARDITAVVPTGFDYWGQGTTLTVSS
VL: DIQMTQSPASLSVSVGETVTITCRASENIYSNLAWYRQKQGKSPQLLVFAASNLADGVPSRFSGSGSGTQYSLKINSLQSEDFGDYYCQHFWTTPWAFGGGTNLEIKR
notes: Murine IgG2a from hybridoma ATCC HB55; also called murine L243; mL234
mean FL [29]: 259 | mean FL [30]: 2090 | mean FL [31]: 4.9 | mean FL [32]: 1220 | mean FL [33]: 788 | mean FL [34]: 1700 | mean FL [35]: 1070 | mean FL [36]: 152 | mean FL [37]: 1900 | mean FL [38]: 565 | mean FL [39]: 24 | mean FL [40]: 2110 | GEO MEAN Fluorescence [41]: 595 | mean FL [42]: 515
